System: Escherichia coli TOP10
Test: shrunken log2 fold change of peptide-encoding DNA abundance (4.5 h post-induction vs induction); higher = less antimicrobial activity (less host growth inhibition)
Conditions: time post-induction: 4.5 h; library: site-saturation at positions 5, 18, 19, 20
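Also: peptides expressed intracellularly from a pBAD plasmid library in pooled LB shake-flask culture, induced with 0.3% L-arabinose, DNA abundance read by NGS, three biological replicates, DESeq2 with apeglm shrinkage.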

Sequence	shrunken log2 fold change
RRIRKRPPRLPRPRPRPHIRPRP	0.0177
RRIRSRPPRLPRPRPRPALKPRP	0.161
RRIRRRPPRLPRPRPRPNAYPRP	0.0409
RRIRTRPPRLPRPRPRPWYEPRP	-0.145
RRIRYRPPRLPRPRPRPMNHPRP	-0.262
RRIRFRPPRLPRPRPRPYKNPRP	-0.957
RRIRTRPPRLPRPRPRPFAHPRP	-0.039
RRIRQRPPRLPRPRPRPINTPRP	-0.129
RRIRERPPRLPRPRPRPVCAPRP	0.415
RRIRKRPPRLPRPRPRPCSKPRP	-0.01
RRIRVRPPRLPRPRPRPYVVPRP	-0.0262
RRIRGRPPRLPRPRPRPAQHPRP	0.378
RRIRWRPPRLPRPRPRPSGDPRP	0.537
RRIRRRPPRLPRPRPRPVKSPRP	0.625
RRIRGRPPRLPRPRPRPGFPPRP	0.691
RRIRIRPPRLPRPRPRPEVNPRP	-0.294
RRIRYRPPRLPRPRPRPNAAPRP	0.216
RRIRMRPPRLPRPRPRPQPFPRP	0.211
RRIRHRPPRLPRPRPRPTHCPRP	-0.000996
RRIRYRPPRLPRPRPRPHAVPRP	-0.4
RRIRCRPPRLPRPRPRPLTVPRP	-0.483
RRIRKRPPRLPRPRPRPQQRPRP	0.0562
RRIRYRPPRLPRPRPRPDHRPRP	-0.227
RRIRPRPPRLPRPRPRPYTKPRP	-0.0218
RRIRWRPPRLPRPRPRPCGLPRP	0.123

Sequence	shrunken log2 fold change
RRIRRRPPRLPRPRPRPRVPPRP	0.745
RRIRGRPPRLPRPRPRPHRFPRP	0.101
RRIRSRPPRLPRPRPRPSPTPRP	-0.0425
RRIRRRPPRLPRPRPRPKAGPRP	0.319
RRIRNRPPRLPRPRPRPRPPPRP	1.26
RRIRPRPPRLPRPRPRPTPQPRP	0.497
RRIRYRPPRLPRPRPRPDDEPRP	0.00902
RRIRWRPPRLPRPRPRPEKYPRP	-0.357
RRIRARPPRLPRPRPRPETIPRP	0.541
RRIRNRPPRLPRPRPRPHNFPRP	-0.436
RRIRQRPPRLPRPRPRPTWQPRP	0.186
RRIRIRPPRLPRPRPRPAEKPRP	-0.213
RRIRDRPPRLPRPRPRPRLSPRP	0.286
RRIRSRPPRLPRPRPRPYPKPRP	-0.119
RRIRRRPPRLPRPRPRPHCNPRP	-0.135
RRIRYRPPRLPRPRPRPNNMPRP	-0.633
RRIRFRPPRLPRPRPRPSGTPRP	-0.0628
RRIRFRPPRLPRPRPRPFCEPRP	-0.124
RRIRTRPPRLPRPRPRPYSGPRP	-0.00196
RRIRDRPPRLPRPRPRPGTRPRP	0.118
RRIRDRPPRLPRPRPRPCWWPRP	0.249
RRIRKRPPRLPRPRPRPTVIPRP	-0.15
RRIRARPPRLPRPRPRPLYHPRP	0.149
RRIRPRPPRLPRPRPRPKCFPRP	0.434
RRIRARPPRLPRPRPRPYRDPRP	-0.761

Sequence	shrunken log2 fold change
RRIRARPPRLPRPRPRPIPAPRP	0.333
RRIRWRPPRLPRPRPRPWTQPRP	0.272
RRIRLRPPRLPRPRPRPPQQPRP	0.313
RRIRKRPPRLPRPRPRPRVPPRP	0.0172
RRIRKRPPRLPRPRPRPPPGPRP	0.961
RRIRERPPRLPRPRPRPDGQPRP	-0.388
RRIRDRPPRLPRPRPRPACIPRP	0.194
RRIRERPPRLPRPRPRPLMTPRP	-0.295
RRIRNRPPRLPRPRPRPWTRPRP	-0.00821
RRIRARPPRLPRPRPRPEHNPRP	-0.0925
RRIRCRPPRLPRPRPRPPQGPRP	0.29
RRIRTRPPRLPRPRPRPRGIPRP	-0.0284
RRIRERPPRLPRPRPRPSTCPRP	-0.324
RRIRQRPPRLPRPRPRPQMMPRP	-0.082
RRIRVRPPRLPRPRPRPGTAPRP	0.136
RRIRARPPRLPRPRPRPACAPRP	0.922
RRIRWRPPRLPRPRPRPPRTPRP	0.663
RRIRDRPPRLPRPRPRPCNEPRP	-0.0633
RRIRFRPPRLPRPRPRPPSCPRP	0.337
RRIRQRPPRLPRPRPRPFWQPRP	0.213
RRIRDRPPRLPRPRPRPVYIPRP	-0.497
RRIRHRPPRLPRPRPRPACRPRP	-0.141
RRIRIRPPRLPRPRPRPEIIPRP	-0.00386
RRIRKRPPRLPRPRPRPYINPRP	-0.627
RRIRFRPPRLPRPRPRPPTNPRP	0.236

Sequence	shrunken log2 fold change
RRIRMRPPRLPRPRPRPRYMPRP	-0.212
RRIRKRPPRLPRPRPRPSPLPRP	0.446
RRIRFRPPRLPRPRPRPVCNPRP	-0.0727
RRIRNRPPRLPRPRPRPRSGPRP	-0.0312
RRIRARPPRLPRPRPRPVIEPRP	0.362
RRIRKRPPRLPRPRPRPTTRPRP	0.717
RRIRHRPPRLPRPRPRPRYLPRP	-0.0229
RRIRARPPRLPRPRPRPFSYPRP	-0.0901
RRIRYRPPRLPRPRPRPFPCPRP	-0.467
RRIRDRPPRLPRPRPRPYNKPRP	-0.398
RRIRWRPPRLPRPRPRPEKTPRP	0.191
RRIRIRPPRLPRPRPRPNVCPRP	-0.204
RRIRGRPPRLPRPRPRPELRPRP	1.71
RRIRRRPPRLPRPRPRPESQPRP	0.303
RRIRLRPPRLPRPRPRPMCAPRP	0.0321
RRIRARPPRLPRPRPRPPTCPRP	0.559
RRIRERPPRLPRPRPRPKSLPRP	-0.515
RRIRMRPPRLPRPRPRPRDFPRP	0.83
RRIRPRPPRLPRPRPRPTNAPRP	0.167
RRIRQRPPRLPRPRPRPSFVPRP	-0.161
RRIRYRPPRLPRPRPRPCCGPRP	-0.33
RRIRYRPPRLPRPRPRPRDGPRP	-0.0431
RRIRARPPRLPRPRPRPMKTPRP	0.0191
RRIRWRPPRLPRPRPRPPRVPRP	0.626
RRIRARPPRLPRPRPRPGILPRP	0.287

Sequence	shrunken log2 fold change
RRIRRRPPRLPRPRPRPTSIPRP	-0.107
RRIRDRPPRLPRPRPRPDSDPRP	0.0999
RRIRHRPPRLPRPRPRPMRCPRP	0.309
RRIRVRPPRLPRPRPRPEHQPRP	-0.477
RRIRHRPPRLPRPRPRPYQTPRP	-0.112
RRIRGRPPRLPRPRPRPIEMPRP	0.0736
RRIRMRPPRLPRPRPRPQQYPRP	-0.017
RRIRVRPPRLPRPRPRPCPIPRP	-0.296
RRIRFRPPRLPRPRPRPQMAPRP	0.168
RRIRVRPPRLPRPRPRPKPIPRP	-0.0649
RRIRDRPPRLPRPRPRPHEVPRP	0.0253
RRIRARPPRLPRPRPRPECSPRP	1
RRIRSRPPRLPRPRPRPEIKPRP	0.104
RRIRFRPPRLPRPRPRPTIYPRP	-0.689
RRIRERPPRLPRPRPRPFRAPRP	0.0204
RRIRRRPPRLPRPRPRPIPCPRP	0.0472
RRIRCRPPRLPRPRPRPETYPRP	-0.34
RRIRCRPPRLPRPRPRPSCPPRP	-0.407
RRIRRRPPRLPRPRPRPELGPRP	0.809
RRIRERPPRLPRPRPRPAKTPRP	-0.244
RRIRVRPPRLPRPRPRPIASPRP	0.171
RRIRCRPPRLPRPRPRPAREPRP	0.0467
RRIRTRPPRLPRPRPRPPFIPRP	-0.177
RRIRNRPPRLPRPRPRPYRAPRP	-0.183
RRIRHRPPRLPRPRPRPARVPRP	0.502

Sequence	shrunken log2 fold change
RRIRRRPPRLPRPRPRPAIYPRP	-0.148
RRIRYRPPRLPRPRPRPTDAPRP	-0.0292
RRIRKRPPRLPRPRPRPLKKPRP	0.0649
RRIRERPPRLPRPRPRPVTKPRP	0.365
RRIRIRPPRLPRPRPRPTCFPRP	-0.249
RRIRTRPPRLPRPRPRPFKCPRP	-0.18
RRIRKRPPRLPRPRPRPNWPPRP	0.19
RRIRPRPPRLPRPRPRPLIKPRP	-0.268
RRIRQRPPRLPRPRPRPVRRPRP	-0.00994
RRIRFRPPRLPRPRPRPYYGPRP	-0.0202
RRIRWRPPRLPRPRPRPHIMPRP	-0.457
RRIRPRPPRLPRPRPRPTCNPRP	-0.142
RRIRWRPPRLPRPRPRPAQIPRP	0.0333
RRIRARPPRLPRPRPRPNPWPRP	0.222
RRIRHRPPRLPRPRPRPSFPPRP	-0.207
RRIRERPPRLPRPRPRPDDDPRP	0.00371
RRIRIRPPRLPRPRPRPRPSPRP	0.322
RRIRNRPPRLPRPRPRPLHTPRP	0.0669
RRIRNRPPRLPRPRPRPKKHPRP	-0.315
RRIRWRPPRLPRPRPRPDQNPRP	-0.0342
RRIRLRPPRLPRPRPRPEHDPRP	0.0235
RRIRQRPPRLPRPRPRPEIIPRP	0.0359
RRIRFRPPRLPRPRPRPVTYPRP	-0.557
RRIRMRPPRLPRPRPRPEKFPRP	-0.000921
RRIRHRPPRLPRPRPRPDFVPRP	-0.242

From the supplement of paper PMC9112550, “Optimization of the antimicrobial peptide Bac7 by deep mutational scanning” (BMC Biology, 2022)
